# Data published in US20260176336A1 (MESTAG THERAPEUTICS, published 2026).
# Changes are numbered by the printed parent chain.
# B1: Clone 3.2 (antibody, V domains shown)
# VH: QVQLVQSGAEVKKPGASVKVSCKASGYTFTGYYMHWVRQAPGQGLEWMGWIYPNTGGTNYAQNFQGRVTMTRDTSISTAYMELSSLRSDDTAVYYCARDDYNKNLDYWGQGTLVTVSS
# VL: DIQMTQSPSTLSASVGDRGTITCRASQSIGSWLAWYQQKPGKTPKLLIYKASSLESGVPSRFSGSGSGTEFTLTISSLQPDDFATYYCQQYNSYFRTFGQGTKVEIK
# notes: anti-FAP mAb (bivalent)
# B2: Clone 3.4 (antibody, V domains shown)
# VH: EVQLVESGGGLVKPGGSLRLSCVASGFTFSLAWMNWVRQAPGKGLEWVGHIKSRADGGSTDYAAPVKGRFTISRDDSKNTLYLHMNSLKTEDTAVYFCSRFYWNYVLDYWGQGTLVTVSS
# VL: DIQMTQSPSSLSASVGDRVTITCRASQSINSYFNWYQQKPGKAPKLLIYAASGLQSGVPSRFSGSGSGTDFTLTISSLQPEDFATYYCQQSYSPPYTFGQGTNLEIK
# notes: anti-FAP mAb (bivalent)
# B3: Clone 3.1 (antibody, V domains shown)
# VH: QLQLQESGPGLVKPSETLSLTCTVSGGSISSSTYYWGWIRQPPGKGLEWIGSIFYSGNTYYNPSLKSRVTISVDTSKNQFSLRLNSVTAADTAVYYCAREIIEPRPGYFDYWGQGTLVTVSS
# VL: B2 VL with N30S, S31K, F33L, L46F, G53S, Y92N, P94I, Y96R, N103K, L104V
# notes: anti-FAP mAb (bivalent)
# B4: Clone 3.3 (antibody, V domains shown)
# VH: QVQLVQSGTEVKKPGASVKVSCKASGYTFTGYYMNWVRQAPGQGLEWVGWINPNSGDTNFAQKFQGRVTMTRDSSISTAYMELSRLRSDDTAVYYCARQFRGYSYGYGMDVWGKGTTVTVSS
# VL: DIQMTQSPSSLSASVGDRVTITCRASQNIGSYLNWYQQKPGKAPKLLIYAASSLQSGVPSRFSGSGSGTDFTLTISSLQPEDFATYYCQQANSFPFTFGPGTKVDIK
# notes: anti-FAP mAb (bivalent)
# B5: Clone 4.17 (bispecific antibody)
# heavy 1: not shown
# heavy 2: QLQLQESGPGLVKPSETLSLTCTVSGGSISSSTYYWGWIRQPPGKGLEWIGSIFYSGNTYYNPSLKSRVTISVDTSKNQFSLRLNSVTAADTAVYYCAREIIEPRPGYFDYWGQGTLVTVSSASTKGPSVFPLAPSSKSTSGGTAALGCLVKDYFPEPVTVSWNSGALTSGVHTFPAVLQSSGLYSLSSVVTVPSSSLGTQTYICNVNHKPSNTKVDKKVEPKSCDKTHTCPPCPAPEAAGGPSVFLFPPKPKDTLMISRTPEVTCVVVDVSHEDPEVKFNWYVDGVEVHNAKTKPREEQYNSTYRVVSVLTVLHQDWLNGKEYKCKVSNKALPAPIEKTISKAKGQPREPQVCTLPPSRDELTKNQVSLSCAVKGFYPSDIAVEWESNGQPENNYKTTPPVLDSDGSFFLVSKLTVDKSRWQQGNVFSCSVMHEALHNHYTQKSLSLSPG
# light: not shown
# B6: Clone 4.18 (bispecific antibody)
# heavy 1: not shown
# heavy 2: B5 heavy 2
# light: not shown
# B7: Clone 4.16 (bispecific antibody)
# heavy 1: not shown
# heavy 2: QVQLVQSGTEVKKPGASVKVSCKASGYTFTGYYMNWVRQAPGQGLEWVGWINPNSGDTNFAQKFQGRVTMTRDSSISTAYMELSRLRSDDTAVYYCARQFRGYSYGYGMDVWGKGTTVTVSSASTKGPSVFPLAPSSKSTSGGTAALGCLVKDYFPEPVTVSWNSGALTSGVHTFPAVLQSSGLYSLSSVVTVPSSSLGTQTYICNVNHKPSNTKVDKKVEPKSCDKTHTCPPCPAPEAAGGPSVFLFPPKPKDTLMISRTPEVTCVVVDVSHEDPEVKFNWYVDGVEVHNAKTKPREEQYNSTYRVVSVLTVLHQDWLNGKEYKCKVSNKALPAPIEKTISKAKGQPREPQVCTLPPSRDELTKNQVSLSCAVKGFYPSDIAVEWESNGQPENNYKTTPPVLDSDGSFFLVSKLTVDKSRWQQGNVFSCSVMHEALHNHYTQKSLSLSPG
# light: not shown
# B8: Clone 1.3 (VHH, not shown: small tags and cut ends)
# VHH: EVQLVESGGGLVQPGGSLRLSCAASGRTFTNYRMAWFRQAPGKEREAVAAINWNGGGTYYADSVKGRFTISRDNAKNTVYLQMNSLRPEDTAVYYCAADSTGWGSYFDYWGQGTLVTVSS
# notes: monovalent anti-LTBR VHH; also called 1.3 (parental clone for 1.8)
# B9: Clone 1.4 (VHH, not shown: small tags and cut ends)
# VHH: EVQLVESGGGLVQPGGSLRLSCKASGTTFSDRAFGWYRQAPGKQRELVATISTAGLTWYDVSVKGRFIISRDNPENTVYLQMNSLRPEDTAVYYCNTFRGNWGQGTLVTVSS
# notes: monovalent anti-LTBR VHH; also called 1.4 (parental clone for 1.6)
# B10: Clone 1.1 (VHH, not shown: small tags and cut ends)
# VHH: EVQLVESGGGLVQPGGSLRLSCAASGRFFGIYDMYWYRQPPGKQRELVAISTSGGHTNYADSVKGRFTISRDNAKNTVYLQMNSLRPEDTAVYYCNIQRVDAPGMYWGQGTLVTV
# notes: monovalent anti-LTBR VHH; also called 1.1 (parental clone for 1.7)
# B11: Clone 1.2 (VHH, not shown: small tags and cut ends)
# VHH: EVQLVESGGGLVQPGGSLRLSCAASGSSIFSFEIMAWYRQAPGKQRELVAVINKGGEANYPDSVEGRFTISRDNAKNTVYLQMNSLRPEDTAVYYCNADAVPHGSYWGQGTLVTVSS
# notes: monovalent anti-LTBR VHH; also called 1.2 (parental clone for 1.5)
# Target: T1, cyno FAP His (Acro), recombinant protein (cynomolgus (Macaca fascicularis), UniProt Q12884 26-760 (human entry))
# T1 construct: bought protein used as analyte on Carterra LSA
# Assay: SPR (Carterra LSA), antibody captured by anti-human Fc, FAP as analyte
# Description: (§1) Binding of anti-FAP antibodies to human and cynomolgus FAP was investigated by Surface Plasmon Resonance (SPR) on Carterra LSA. An EC30M chip was used to capture the test antibodies. The chip was activated for bioconjugation using EDC and sNHS in MES pH 5.5 to prepare the chip for amine coupling. Goat anti-human IgG Fc antibody was then captured to the chip via incubation for 10 minutes. Excess conjugation sites were quenched with 1M Ethanolamine pH 8. To measure monovalent binding kinetics, antibodies were printed/spotted onto the chip and allowed to bind to the goat antibody, followed by subsequent washing. After the preparation, the printed chip was exposed to repeated rounds of association and dissociation with increasing analyte concentrations. In this work, recombinant proteins (Human FAP (Acro) or cyno FAP His (Acro)) were serially diluted across a range starting at 1500 nM with 3-fold dilutions and 10 points. The curves were fitted to global fit in a 1:1 binding model to obtain KD values. The binding affinity to both human and cynomolgus FAP is reported in.
row,Binder,Kd [nM]
1,B1,0.028
2,B2,0.03
3,B3,0.051
4,B4,0.021

# Target: Human FAP (Acro), recombinant protein (human, UniProt Q12884 26-760)
# Assay: as above
# Description: as §1
row,Binder,Kd [nM]
1,B1,0.047
2,B2,0.033
3,B3,0.04
4,B4,0.023

# Target: T2, human LTBR endogenously expressed on cells (HepG2, A549, A375, HCC1187, RPMI-7951, primary human breast CAFs) (human, UniProt P36941 31-435)
# Assay: cell-based or functional assay
# T2 sequence (P36941 31-435): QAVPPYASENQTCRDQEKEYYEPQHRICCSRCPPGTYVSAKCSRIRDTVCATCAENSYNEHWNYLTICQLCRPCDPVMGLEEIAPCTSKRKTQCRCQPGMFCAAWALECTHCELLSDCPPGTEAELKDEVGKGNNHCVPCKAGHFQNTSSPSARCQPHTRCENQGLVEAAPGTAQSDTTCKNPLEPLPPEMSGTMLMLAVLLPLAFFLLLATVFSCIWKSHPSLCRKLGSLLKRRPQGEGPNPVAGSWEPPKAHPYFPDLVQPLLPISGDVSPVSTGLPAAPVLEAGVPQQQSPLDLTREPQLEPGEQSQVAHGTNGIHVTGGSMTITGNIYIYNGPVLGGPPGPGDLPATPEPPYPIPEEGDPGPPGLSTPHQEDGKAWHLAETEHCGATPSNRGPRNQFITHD
row,Binder,"HepG2 Reporter assay, HepG2:FAP-CHO-K1 Co-culture EC50 [pM]"
1,B5,17
2,B6,23
3,B7,16

# Target: T2, human LTBR endogenously expressed on …
# Assay: cell-based or functional assay
# Remark: another data set of the same source
row,Binder,"CCL19 upregulation, HCC1187:CAF Co-culture EC50 [pM]"
1,B5,60
2,B6,120
3,B7,90

# Target: T3, human FAP expressed on cells (transfected HEK293; FAP-CHO-K1 recombinant cell line, BPS cat no. 79947) (human, UniProt Q12884 1-760)
# T3 construct: also called HuFAP-HEK293; Hek-FAP
# Assay: flow cytometry, human FAP-transfected HEK293 cells
# Description: The binding of antibodies to human FAP expressed on transfected HEK293 cells was measured by FACS. In addition, binding to parental HEK293 was tested to confirm antibody specificity. In short, the cells were resuspended in the FACS binding buffer and live/dead efluro450 viability dye was added at a 1:1000 dilution to the cell suspension, followed by incubation at room temperature in the dark for 30 minutes. The cells were then diluted to 2 e5/ml, and 100 ul was added to wells of a 96-well U-bottom plate as required. […] The cells were pelleted by centrifugation, and the supernatant was discarded, followed by the addition of a series of dilutions of anti-FAP antibodies and incubation for 45 minutes at 4° C. in the dark. Cells were washed two times with PBS with 3% (w/v) BSA before adding 60 ul of fluorescently labelled secondary antibody (goat anti-human IgG) diluted to 1:200 in PBS. Incubation continued at 4 C for at least 30 minutes, followed by two washes in PBS pH 7.4. Cells were either fixed with 2% PFA (30 minutes at 4° C.) followed by washout and storage in 100 ul of PBS or immediately analysed on a Flow Cytometer. The data was analysed using FloJo V10 and GraphPad Prism. No binding to the HEK parental cell line was detected for any tested clones, confirming the specific interaction between anti-FAP antibodies and the FAP receptor. The results are summarised in.
row,Binder,EC50 [nM]
1,B1,0.7
2,B2,1.1
3,B3,1.7
4,B4,0.6

# Target: T4, human recombinant LTBR fused on human Fc (SinoBiological, cat. #10581-H02H) (human, UniProt P36941 31-227)
# T4 construct: bought protein; also called human LTBR human IgG1 Fc chimera protein; not shown: human IgG1 Fc
# Assay: SPR (Biacore T200), LTBR-Fc on CM5 chip, periplasmic extract as analyte
# Description: (§2) To confirm species cross-reactivity, either human or cynomolgus recombinant LTBR-fused on human Fc (SinoBiological, cat. #10581-H02H and 90101-C02H) were immobilised on CM5 sensor chips (cat. #CFJB 334). 1:5 dilutions of crude periplasmic extracts of clones expressing VHHs were injected at 30 μl/min for 2 min in HBS-EP pH 7.4 buffer to allow for binding to chip-bound antigen. Next, an HBS-EP pH7.4 buffer without VHHs was injected for 5 minutes at the same flow rate to enable spontaneous dissociation of bound VHHs. Surface regeneration was done with 10 ul of 1 mM Glycine pH 1.5/1 M NaCl injected twice between samples. From the sensorgrams obtained on a BiacoreT200 machine, koff values were calculated by fitting a 1:1 interaction model (Langmuir model) using Insight Evaluation Software (Biacore). Based on this analysis, four clones were selected for further evaluation, and the results are included in.
# T4 sequence (P36941 31-227 limits assumed): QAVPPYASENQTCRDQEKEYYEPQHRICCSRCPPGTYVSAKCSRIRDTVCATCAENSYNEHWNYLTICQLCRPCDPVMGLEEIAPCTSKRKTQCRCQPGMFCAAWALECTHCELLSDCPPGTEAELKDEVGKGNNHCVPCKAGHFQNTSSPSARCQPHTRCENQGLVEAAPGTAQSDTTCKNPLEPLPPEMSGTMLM
row,Binder,koff [s⁻¹]
1,B8,0.0038
2,B9,0.0018
3,B10,0.0008
4,B11,0.00069

# Target: T5, cynomolgus recombinant LTBR fused on human Fc (SinoBiological, cat. #90101-C02H) (cynomolgus (Macaca fascicularis), UniProt P36941 31-227 (human entry))
# T5 construct: bought protein
# Assay: as above
# Description: as §2
# T5 sequence (P36941 other isoform, or with tags, fused parts or gaps C02H C02H limits assumed): as the sequence (P36941 31-227 limits assumed) above, with A2V, A7G, Q24R, I45S, N163D, K181R, L184S, P186S counted along it
row,Binder,koff [s⁻¹]
1,B8,0.0031
2,B9,0.00097
3,B10,0.0014
4,B11,0.0026

# Target: T2, human LTBR endogenously expressed on …
# Assay: cell-based or functional assay
# Remark: another data set of the same source
row,Binder,chemokine (CCL5) induction in RPMI-7951 EC50 [pM]
1,B5,10
2,B6,67
3,B7,7.8

# Target: T3, human FAP expressed on cells …
# Assay: flow cytometry, HEK293-FAP overexpressing cells
row,Binder,EC50 [nM]
1,B5,0.8
2,B6,1
3,B7,0.4

# Target: T2, human LTBR endogenously expressed on …
# Assay: flow cytometry, HepG2 cells, VHH detected by anti-FLAG
# Description: The purified proteins were tested for binding to endogenously expressed human LTBR in HepG2 cells. The expression level was confirmed with anti-LTBR clone CBE-11 (“huCBE11” as disclosed in WO2004002431). The HepG2 cells were resuspended to a final concentration of 1.0×10⁶ cells/ml in FACS buffer. A series dilution of purified VHHs was incubated with mouse anti-FLAG biotinylated antibody (Sigma Aldrich, cat. #F9291-1MG) at 5 μg/ml in FACS buffer for 30 min at RT with shaking. Cell suspensions were distributed into a 96-well v-bottom plate and incubated with the above-described VHH/antibody mixture for 1 hour on ice while shaking. VHH binding to cells was detected with streptavidin R-PE (Invitrogen, cat. #.SA10044) at 1:400 dilution (0.18 μg/ml) in FACS buffer, incubated for 30 minutes on ice with shaking and protection from light. The cells were acquired by flow cytometry. The data was analysed using FloJo V10 and GraphPad Prism. The EC50 values can be found in.
row,Binder,EC50 [nM]
1,B8,1.2
2,B9,2.3
3,B10,0.41
4,B11,1.6
